Source: PMC12374970, “NSUN2 facilitates DICER cleavage of DNA damage-associated R-loops to promote repair” (Nature Communications, 2025)

Biological target: T1, 6xHis-DICER (recombinant wild-type DICER) (human, UniProt Q9UPY3 1-1922)
T1 construct: DICER (endoribonuclease Dicer), human; expressed from pFastBac1-hDICER; See Addgene 89144 and the plasmid list in Supplementary Data 1; also called hDICER; recombinant DICER; source: Sf9 (baculovirus, pFastBac1-hDICER), purified (Ni-NTA)
Assay: SPR; Biacore S200; 6xHis-NSUN2 (0.2 μg/mL) immobilised on CM5 chip at pH 4.0 by amine coupling; 2-fold serial dilutions of 6xHis-DICER (0.00117–0.6 µM) in 50 mM TrisHCl (pH 8), 50 mM NaCl, 5 mM MgCl2, 2 mM TCEP, 0.05% Tween20; equilibrium (steady-state) fit
Conditions: both partners purified

T1 sequence (Q9UPY3 whole entry): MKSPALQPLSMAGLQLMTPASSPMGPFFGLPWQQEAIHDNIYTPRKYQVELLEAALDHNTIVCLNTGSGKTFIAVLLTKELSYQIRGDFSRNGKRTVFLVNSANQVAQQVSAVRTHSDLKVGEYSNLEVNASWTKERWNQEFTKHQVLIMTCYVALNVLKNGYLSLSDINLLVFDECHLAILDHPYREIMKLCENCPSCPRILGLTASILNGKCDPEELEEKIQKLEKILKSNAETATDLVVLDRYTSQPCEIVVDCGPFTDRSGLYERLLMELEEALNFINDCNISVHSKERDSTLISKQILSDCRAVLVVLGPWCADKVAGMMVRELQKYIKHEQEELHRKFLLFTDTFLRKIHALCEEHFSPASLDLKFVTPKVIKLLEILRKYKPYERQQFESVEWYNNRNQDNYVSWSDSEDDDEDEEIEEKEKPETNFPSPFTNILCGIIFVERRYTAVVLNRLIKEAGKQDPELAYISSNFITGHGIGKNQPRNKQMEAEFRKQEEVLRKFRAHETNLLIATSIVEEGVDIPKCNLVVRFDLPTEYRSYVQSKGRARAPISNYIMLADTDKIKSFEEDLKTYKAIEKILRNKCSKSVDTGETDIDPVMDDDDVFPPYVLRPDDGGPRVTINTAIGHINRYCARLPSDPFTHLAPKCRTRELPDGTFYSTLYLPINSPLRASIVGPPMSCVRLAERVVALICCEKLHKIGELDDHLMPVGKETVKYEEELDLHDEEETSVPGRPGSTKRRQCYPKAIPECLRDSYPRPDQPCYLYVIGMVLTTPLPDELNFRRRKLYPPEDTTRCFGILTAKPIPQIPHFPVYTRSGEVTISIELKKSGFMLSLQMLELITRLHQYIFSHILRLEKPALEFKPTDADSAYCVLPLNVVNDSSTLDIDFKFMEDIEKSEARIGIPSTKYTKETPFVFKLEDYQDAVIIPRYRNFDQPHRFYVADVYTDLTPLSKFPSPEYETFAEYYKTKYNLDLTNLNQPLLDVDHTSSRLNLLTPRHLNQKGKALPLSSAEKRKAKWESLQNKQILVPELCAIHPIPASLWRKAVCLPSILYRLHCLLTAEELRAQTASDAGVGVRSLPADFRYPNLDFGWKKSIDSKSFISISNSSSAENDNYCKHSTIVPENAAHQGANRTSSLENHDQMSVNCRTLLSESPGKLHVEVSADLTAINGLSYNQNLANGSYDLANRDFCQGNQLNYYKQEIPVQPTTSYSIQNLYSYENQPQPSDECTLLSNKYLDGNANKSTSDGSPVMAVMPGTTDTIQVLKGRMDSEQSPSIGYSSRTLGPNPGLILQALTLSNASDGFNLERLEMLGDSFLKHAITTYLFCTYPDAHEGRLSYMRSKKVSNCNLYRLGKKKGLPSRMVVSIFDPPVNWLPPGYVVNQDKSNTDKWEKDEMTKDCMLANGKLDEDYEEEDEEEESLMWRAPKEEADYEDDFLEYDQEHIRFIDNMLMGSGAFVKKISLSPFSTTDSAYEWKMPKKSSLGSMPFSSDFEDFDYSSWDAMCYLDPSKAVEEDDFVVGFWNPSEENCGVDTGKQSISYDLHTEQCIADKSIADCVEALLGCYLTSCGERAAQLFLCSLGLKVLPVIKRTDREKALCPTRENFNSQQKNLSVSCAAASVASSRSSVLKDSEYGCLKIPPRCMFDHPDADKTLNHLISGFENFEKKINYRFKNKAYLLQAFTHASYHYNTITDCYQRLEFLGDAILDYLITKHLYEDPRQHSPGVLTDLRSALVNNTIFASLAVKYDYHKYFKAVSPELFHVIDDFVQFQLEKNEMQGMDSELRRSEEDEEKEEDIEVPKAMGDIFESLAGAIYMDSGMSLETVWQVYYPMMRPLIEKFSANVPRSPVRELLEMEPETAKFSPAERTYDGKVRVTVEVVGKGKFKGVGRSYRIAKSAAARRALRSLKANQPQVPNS

B1: 6xHis-NSUN2 (recombinant wild-type NSUN2) (enzyme, human, UniProt Q08J23 1-767, looked up)
chain: MGRRSRGRRLQQQQRPEDAEDGAEGGGKRGEAGWEGGYPEIVKENKLFEHYYQELKIVPEGEWGQFMDALREPLPATLRITGYKSHAKEILHCLKNKYFKELEDLEVDGQKVEVPQPLSWYPEELAWHTNLSRKILRKSPHLEKFHQFLVSETESGNISRQEAVSMIPPLLLNVRPHHKILDMCAAPGSKTTQLIEMLHADMNVPFPEGFVIANDVDNKRCYLLVHQAKRLSSPCIMVVNHDASSIPRLQIDVDGRKEILFYDRILCDVPCSGDGTMRKNIDVWKKWTTLNSLQLHGLQLRIATRGAEQLAEGGRMVYSTCSLNPIEDEAVIASLLEKSEGALELADVSNELPGLKWMPGITQWKVMTKDGQWFTDWDAVPHSRHTQIRPTMFPPKDPEKLQAMHLERCLRILPHHQNTGGFFVAVLVKKSSMPWNKRQPKLQGKSAETRESTQLSPADLTEGKPTDPSKLESPSFTGTGDTEIAHATEDLENNGSKKDGVCGPPPSKKMKLFGFKEDPFVFIPEDDPLFPPIEKFYALDPSFPRMNLLTRTTEGKKRQLYMVSKELRNVLLNNSEKMKVINTGIKVWCRNNSGEEFDCAFRLAQEGIYTLYPFINSRIITVSMEDVKILLTQENPFFRKLSSETYSQAKDLAKGSIVLKYEPDSANPDALQCPIVLCGWRGKASIRTFVPKNERLHYLRMMGLEVLGEKKKEGVILTNESAASTGQPDNDVTEGQRAGEPNSPDAEEANSPDVTAGCDPAGVHPPR
notes: RNA m5C-methyltransferase NSUN2, human; The plasmid list is in Supplementary Data 1; also called NSUN2 wt; recombinant NSUN2; source: Sf9 (baculovirus, pFastBac1-NSUN2), purified (Ni-NTA)
Kd: ~500 nM
